{"source": "paper PMC2171039", "key": {"[1]": {"target": "Vps32 (Aspergillus nidulans)", "sequence (C8V487 whole entry)": "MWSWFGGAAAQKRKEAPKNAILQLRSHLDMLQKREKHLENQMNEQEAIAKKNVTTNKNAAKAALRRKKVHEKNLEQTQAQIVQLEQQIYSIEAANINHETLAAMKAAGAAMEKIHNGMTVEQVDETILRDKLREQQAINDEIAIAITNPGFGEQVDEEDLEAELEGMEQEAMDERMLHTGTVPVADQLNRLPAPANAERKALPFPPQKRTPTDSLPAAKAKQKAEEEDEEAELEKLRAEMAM", "assay": "two-hybrid"}, "[2]": {"target": "GST::PalC (Aspergillus nidulans)", "assay": "pull-down"}}}
{"substance": "PalC Arg442Ala (natural protein)", "values": [{"measurement": "β-galactosidase activity, % of the wild type (% of the wild type)", "setting": "[1]", "result": 18}]}
{"substance": "PalC Arg442His (natural protein)", "values": [{"measurement": "β-galactosidase activity, % of the wild type (% of the wild type)", "setting": "[1]", "result": 11}]}
{"substance": "zz-Vps32 (natural protein)", "values": [{"measurement": "stoichiometry N (mol of zz-Vps32 per mole of GST::PalC)", "setting": "[2]", "result": 0.9}]}
